Experimental data taken from paper PMC10173337.
Where “and” joins values, the source holds several entries; their conditions need not be identical. Equal values may be shown once.

Molecular target: eight amino acid-mutated FcγRIIIa without glycosylation (ligand of the TSKgel FcR-IIIA-NPR column) (UniProt P08637)
Assay: FcγRIIIa affinity column chromatography

UniProt P08637, sequence (P08637 17-208, change not shown): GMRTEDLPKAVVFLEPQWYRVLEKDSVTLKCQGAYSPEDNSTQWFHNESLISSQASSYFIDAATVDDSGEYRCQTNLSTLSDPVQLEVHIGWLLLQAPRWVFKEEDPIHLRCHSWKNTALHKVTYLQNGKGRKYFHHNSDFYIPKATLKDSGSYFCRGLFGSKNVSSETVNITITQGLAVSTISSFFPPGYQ

Substance | retention time
full-length mogamulizumab 4 (antibody) | 12.1 min and 14.8 min and 17.2 min
full-length rituximab with trisaccharide 7 (antibody) | 4.3 min
full-length cetuximab 3 (antibody) | 10.7 min and 13.3 min and 15.1 min
Fc fragment of rituximab with full-length glycan 10 (domain or fragment) | 16.4 min

More lines, now with the values ahead:

retention time | Substance
9.8 min and 12.2 min and 14.7 min | full-length trastuzumab 2 (antibody)
10.2 min and 12.6 min and 15 min | full-length rituximab 1 (antibody)
15.6 min | full-length rituximab with full-length glycan 8 (antibody)
11.2 min and 13.6 min and 16 min | Fc fragment of rituximab after papain digestion 5 (domain or fragment)
